According to US20030170203A1 (Human Genome Sciences, published 2003):

T1: full length TNF-gamma-beta expressed on the cell surface (human, UniProt O95150 1-251)
T1 construct: whole, on cells; also called TNF-gamma-beta expressing cells
T1 sequence (looked up): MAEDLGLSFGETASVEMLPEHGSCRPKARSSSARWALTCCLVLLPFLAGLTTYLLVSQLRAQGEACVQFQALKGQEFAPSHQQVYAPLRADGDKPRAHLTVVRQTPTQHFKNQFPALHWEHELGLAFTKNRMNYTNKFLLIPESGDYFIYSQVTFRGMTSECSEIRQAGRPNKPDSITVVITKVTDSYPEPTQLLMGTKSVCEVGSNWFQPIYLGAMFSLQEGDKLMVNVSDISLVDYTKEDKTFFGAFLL

B1: Fc-fusion form of the extracellular domain of DcR1 (Fc fusion, UniProt O14798 26-221, looked up)
chain: ATTARQEEVPQQTVAPQQQRHSFKGEECPAGSHRSEHTGACNPCTEGVDYTNASNNEPSCFPCTVCKSDQKHKSSCTMTRDTVCQCKEGTFRNENSPEMCRKCSRCPSGEVQVSNCTSWDDIQCVEEFGANATVETPAAEETMNTSPGTPAPAAEETMNTSPGTPAPAAEETMTTSPGTPAPAAEETMTTSPGTPA
notes: extracellular domain; not shown: Fc
B2: Fc-fusion form of the extracellular domain of TNFR1 (Fc fusion, UniProt P19438 30-211, looked up)
chain: LVPHLGDREKRDSVCPQGKYIHPQNNSICCTKCHKGTYLYNDCPGPGQDTDCRECESGSFTASENHLRHCLSCSKCRKEMGQVEISSCTVDRDTVCGCRKNQYRHYWSENLFQCFNCSLCLNGTVHLSCQEKQNTVCTCHAGFFLRENECVSCSNCKKSLECTKLCLPQIENVKGTEDSGTT
notes: extracellular domain; also called TNFR1-Fc; TNFRI.Fc; not shown: Fc
B3: Fc-fusion form of the extracellular domain of OPG (Fc fusion, UniProt O00300 22-194, looked up)
chain: ETFPPKYLHYDEETSHQLLCDKCPPGTYLKQHCTAKWKTVCAPCPDHYYTDSWHTSDECLYCSPVCKELQYVKQECNRTHNRVCECKEGRYLEIEFCLKHRSCPPGFGVVQAGTPERNTVCKRCPDGFFSNETSSKAPCRKHTNCSVFGLLLTQKGNATHDNICSGNSESTQK
notes: as for B1
B4: Fc-fusion form of the extracellular domain of DcR2 (Fc fusion, UniProt Q9UBN6 56-211, looked up)
chain: ATIPRQDEVPQQTVAPQQQRRSLKEEECPAGSHRSEYTGACNPCTEGVDYTIASNNLPSCLLCTVCKSGQTNKSSCTTTRDTVCQCEKGSFQDKNSPEMCRTCRTGCPRGMVKVSNCTPRSDIKCKNESAASSTGKTPAAEETVTTILGMLASPYH
notes: as for B1
B5: Fc-fusion form of the extracellular domain of OX40 (Fc fusion, UniProt P43489 29-214, looked up)
chain: LHCVGDTYPSNDRCCHECRPGNGMVSRCSRSQNTVCRPCGPGFYNDVVSSKPCKPCTWCNLRSGSERKQLCTATQDTVCRCRAGTQPLDSYKPGVDCAPCPPGHFSPGDNQACKPWTNCTLAGKHTLQPASNSSDAICEDRDPPATQPQETQGPPARPITVQPTEAWPRTSQGPSTRPVEVPGGRA
notes: as for B1
B6: Fc-fusion form of the extracellular domain of RANK (Fc fusion, UniProt Q9Y6Q6 30-212, looked up)
chain: IAPPCTSEKHYEHLGRCCNKCEPGKYMSSKCTTTSDSVCLPCGPDEYLDSWNEEDKCLLHKVCDTGKALVAVVAGNSTTPRRCACTAGYHWSQDCECCRRNTECAPGLGAQHPLQLNKDTVCKPCLAGYFSDAFSSTDKCRPWTNCTFLGKRVEHHGTEKSDAVCSSSLPARKPPNEPHVYLP
notes: as for B1
B7: Fc-fusion form of the extracellular domain of AITR (Fc fusion, UniProt Q9Y5U5 26-162, looked up)
chain: QRPTGGPGCGPGRLLLGTGTDARCCRVHTTRCCRDYPGEECCSEWDCMCVQPEFHCGDPCCTTCRHHPCPPGQGVQSQGKFSFGFQCIDCASGTFSGGHEGHCKPWTDCTQFGFLTVFPGNKTHNAVCVPGSPPAEP
notes: as for B1

target: T1, full length TNF-gamma-beta expressed on …; test: flow cytometry on HEK293F stable transfectants expressing full length TNF-gamma-beta
Method: TR6 has been previously described as a decoy receptor (Pitti et al., Nature 396:699-703 (1998); Yu et al., J. Biol Chem. 274:13733-6 (1999)) capable of competing with Fas and HveA for binding of FasL and LIGHT, respectively.
One million cells, in 0.1 ml of FACS buffer (PBS, 0.1% BSA, 0.1% NaN₃), were incubated with 0.1-1 microgram of protein or antibody at RT for 15 min. The cells were washed with 3 ml of FACS buffer, reacted with biotinylated primary antibody, and stained with PE-conjugated secondary antibody at RT for 15 min. Cells were then washed again, resuspended in 0.5 microgram/ml of propidium iodide, and live cells were gated and analyzed on a FACScan using the CellQuest software (BD Biosciences).

Binding result, no binding:
B1
B2
B3
B4
B5
B6
B7
